Experimental data from patent US20260201068A1 (UNIVERSIT DE GEN VE, published 2026).

Assays:
[1] = molecular target: T1, human PTPRZ1 extracellular portion (domains 1 plus 2) knocked in and shown on Ge518_PTPRZ1-KI cells (human, UniProt P23471 25-413, limits assumed); assay: flow cytometry on Ge518_PTPRZ1-KI cells, scFv conjugated to rabbit Fc, anti-rabbit IgG AlexaFluo488
T1 construct: domain: extracellular portion (domains 1 plus 2); parental Ge518 has low PTPRZ1 expression; also called receptor-type tyrosine-protein phosphatase zeta
T1 sequence (P23471 25-413 limits assumed): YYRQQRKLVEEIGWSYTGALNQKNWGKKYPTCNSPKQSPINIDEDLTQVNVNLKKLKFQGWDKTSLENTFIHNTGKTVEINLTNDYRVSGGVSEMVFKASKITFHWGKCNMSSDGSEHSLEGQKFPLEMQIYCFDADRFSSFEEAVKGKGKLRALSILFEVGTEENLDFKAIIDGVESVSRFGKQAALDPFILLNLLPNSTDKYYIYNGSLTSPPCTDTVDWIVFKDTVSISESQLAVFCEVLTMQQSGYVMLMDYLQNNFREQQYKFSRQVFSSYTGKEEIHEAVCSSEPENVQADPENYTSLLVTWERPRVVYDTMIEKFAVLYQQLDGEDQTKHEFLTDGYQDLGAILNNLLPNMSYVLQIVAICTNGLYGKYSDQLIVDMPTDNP
From the text: The GBM cell line Ge518, obtained in our lab from a patient tumor resection, was used as a tumor model to evaluate CAR T cell efficacy. As PTPRZ1 expression was low in these cells, the antigen was overexpressed by introducing (knock-in) an extracellular portion (domains 1 plus 2) of the human PTPRZ1 molecule under the EF1a promoter, using a 3rd generation LV vector with puromycin selection.

[2] = molecular target: human PTPRZ1 extracellular portion (domains 1 plus 2) knocked in and shown on Ge518_PTPRZ1-KI cells (human) (UniProt P23471); assay: cell-based or functional assay
human PTPRZ1 extracellular portion (domains 1 plus 2) knocked in and shown on Ge518_PTPRZ1-KI cells (human), sequence (P23471 25-413 limits assumed): as above

| level of recognition (percent, flow cytometry) [1] [%] | Binder | killing of Ge518 PTPRZ1-KI target cells by CAR T cells, E:T 3:1 [2] [%] |
| --- | --- | --- |
| ≥ 80 | anti-PTPRZ1 scFv RRB471 conjugated to a rabbit Fc (Fc fusion, scFv conjugated to a rabbit Fc for flow cytometry; not shown: rabbit Fc) scFv: MAEVQLVESGGGLVQPGGSLRLSCAASGFTFSSYSMNWVRQAPGKGLEWVSYISSSSSTIYYADSVKGRFTISRDNAKNSLYLQMNSLRAEDTAVYYCARPGYGDFPGAFDIWGQGTLVTVSSGGGGSGGGGSGGGGSTQSALTQPASVSGSPGQSITISCTGTSSDVGGYNYVSWYQQHPGKAPKLMIYEVSNRPSGVSNRFSGSKSGNTASLTISGLQAEDEADYYCSSYDWATYGSVFGGGTKLTVLGAA |  |
| ≥ 80 | anti-PTPRZ1 scFv RRB469 conjugated to a rabbit Fc (Fc fusion, Flow cytometry was done with the scFvs conjugated to a rabbit Fc, detected with anti-rabbit IgG AlexaFluo488; also called scFv 469; not shown: rabbit Fc) scFv: MAQVQLVESGGGVVQPGRSLRLSCAASGFTFSSYAMHWVRQAPGKGLEWVAVISYDGSNKYYADSVKGRFTISRDNSKNTLYLQMNSLRAEDTAVYYCARGSGYSYGPGYDAFDIWGQGTLVTVSSGGGGSGGGGSGGGGSTNFMLTQPHSVSESPGKTVTISCTRSSGSIASNYVQWYQQRPGSSPTTVIYEDNQRPSGVPDRFSGSIDSSSNSASLTISGLKTEDEADYYCQSWDPVFGVFGGGTKLTVLGAA |  |
| ≥ 80 | anti-PTPRZ1 scFv RRB476 conjugated to a rabbit Fc (Fc fusion, scFv conjugated to a rabbit Fc for flow cytometry; also called scFv 476; not shown: rabbit Fc) scFv: MAQVQLVESGGGVVQPGRSLRLSCAASGFTFSSYAMHWVRQAPGKGLEWVAVISYDGSNKYYADSVKGRFTISRDNSKNTLYLQMNSLRAEDTAVYYCARDQDDSSDAFDIWGQGTLVTVSSGGGGSGGGGSGGGGSTQSVLTQPPSVSAAPGQKVTISCSGSSSNIGNNYVSWYQQLPGTAPKLLIYDNNKRPSGIPDRFSGSKSGTSATLGITGLQTGDEADYYCGTWDYKVSRLVFGGGTKLTVLGAA |  |

Second part, the binder before the results:

| Binder | level of recognition (percent, flow cytometry) [1] [%] | killing of Ge518 PTPRZ1-KI target cells by CAR T cells, E:T 3:1 [2] [%] |
| --- | --- | --- |
| anti-PTPRZ1 scFv RRB473 conjugated to a rabbit Fc (Fc fusion, scFv conjugated to a rabbit Fc for flow cytometry; also called scFv 473; not shown: rabbit Fc) scFv: MAQVQLVESGGGVVQPGRSLRLSCAASGFTFSSYAMHWVRQAPGKGLEWVAVISYDGSNKYYADSVKGRFTISRDNSKNTLYLQMNSLRAEDTAVYYCARDQDDSSDAFDIWGQGTLVTVSSGGGGSGGGGSGGGGSTQSVLTQPPSVSAAPGQKVTISCSGSSSNIGNNYVSWYQQLPGTAPKLLIYDNNKRPSGIPDRFSGSKSGTSATLGITGLQTGDEADYYCGTYDYIATRAVFGGGTKLTVLGAA | ≥ 80 |  |
| anti-PTPRZ1 471_28z chimeric antigen receptor (on RNA CAR T cells) (protein, part only; not given: CD3zeta signalling domain, part only) chain, part: MAEVQLVESGGGLVQPGGSLRLSCAASGFTFSSYSMNWVRQAPGKGLEWVSYISSSSSTIYYADSVKGRFTISRDNAKNSLYLQMNSLRAEDTAVYYCARPGYGDFPGAFDIWGQGTLVTVSSGGGGSGGGGSGGGGSTQSALTQPASVSGSPGQSITISCTGTSSDVGGYNYVSWYQQHPGKAPKLMIYEVSNRPSGVSNRFSGSKSGNTASLTISGLQAEDEADYYCSSYDWATYGSVFGGGTKLTVLGAAESKYGPPCPPCPFWVLVVVGGVLACYSLLVTVAFIIFWVRSKRSRGGHSDYMNMTPRRPGPTRKHYQPYAPPRDFAAYRS |  | 80 |
